From article PMC9119628 (PLoS Pathogens, 2022)

What was measured:
[1] = biological target: T1, HA-NP (HA-tagged EBOV nucleoprotein) (Zaire ebolavirus (EBOV), UniProt P18272 1-739); experiment: pull-down; settings: one partner purified
T1 sequence: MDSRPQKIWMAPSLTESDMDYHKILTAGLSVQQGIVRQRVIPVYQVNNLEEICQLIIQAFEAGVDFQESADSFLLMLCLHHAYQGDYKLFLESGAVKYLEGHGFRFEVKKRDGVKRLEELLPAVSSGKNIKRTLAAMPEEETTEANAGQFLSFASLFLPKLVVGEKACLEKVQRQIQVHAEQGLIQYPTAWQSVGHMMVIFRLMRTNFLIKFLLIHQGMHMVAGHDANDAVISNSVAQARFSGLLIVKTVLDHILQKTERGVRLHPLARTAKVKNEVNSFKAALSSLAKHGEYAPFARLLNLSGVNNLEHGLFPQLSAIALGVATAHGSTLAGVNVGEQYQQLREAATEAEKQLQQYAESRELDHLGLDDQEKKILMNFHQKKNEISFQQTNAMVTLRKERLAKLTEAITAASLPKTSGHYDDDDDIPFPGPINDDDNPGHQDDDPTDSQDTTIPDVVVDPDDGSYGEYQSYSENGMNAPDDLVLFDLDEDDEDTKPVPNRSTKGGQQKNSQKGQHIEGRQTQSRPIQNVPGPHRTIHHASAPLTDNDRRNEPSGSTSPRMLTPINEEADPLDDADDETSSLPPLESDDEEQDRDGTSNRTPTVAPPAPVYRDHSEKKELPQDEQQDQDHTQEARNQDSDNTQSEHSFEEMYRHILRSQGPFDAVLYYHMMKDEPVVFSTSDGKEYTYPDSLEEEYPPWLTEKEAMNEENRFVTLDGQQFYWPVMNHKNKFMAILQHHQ

[2] = biological target: T1, HA-NP (HA-tagged EBOV nucleoprotein); experiment: co-IP; settings: partners not purified

B1: untagged EBOV VP35 wild type (natural protein)
chain: MTTRTKGRGHTAATTQNDRMPGPELSGWISEQLMTGRIPVSDIFCDIENNPGLCYASQMQQTKPNPKTRNSQTQTDPICNHSFEEVVQTLASLATVVQQQTIASESLEQRITSLENGLKPVYDMAKTISSLNRVCAEMVAKYDLLVMTTGRATATAAATEAYWAEHGQPPPGPSLYEESAIRGKIESRDETVPQSVREAFNNLNSTTSLTEENFGKPDISAKDLRNIMYDHLPGFGTAFHQLVQVICKLGKDSNSLDIIHAEFQASLAEGDSPQCALIQITKRVPIFQDAAPPVIHIRSRGDIPRACQKSLRPVPPSPKIDRGWVCVFQLQDGKTLGLKI
fold change of binding, with OTU-wt co-expression against without OTU [1]: 5 fold
fold change of binding, T6-KO against wt A549 cells [2]: 6 fold
